In PMC9482650, “Quantitative fragmentomics allow affinity mapping of interactomes” (Nature Communications, 2022):

B1: PRKACA, P17612 (peptide)
chain: EKCGKEFSEF

Target: T1, GRIP1_4, Q9Y3R0
T1 sequence (Q9Y3R0 467-571, limits assumed, looked up): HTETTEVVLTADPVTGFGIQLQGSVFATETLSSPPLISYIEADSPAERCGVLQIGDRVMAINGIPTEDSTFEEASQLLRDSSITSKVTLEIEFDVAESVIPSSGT
Test: holdup assay
Design: key: below the threshold = too weak to quantify, mostly under pKd 3.1 to 4
Conditions: plain residues with an end cap or a label only (N-terminal biotin on a linker: ado-ado)

Q: How did the pKd turn out when B1 was run?
A: below the threshold

Target: T2, TIAM2, Q8IVF5
T2 sequence (Q8IVF5 885-986, limits assumed, looked up): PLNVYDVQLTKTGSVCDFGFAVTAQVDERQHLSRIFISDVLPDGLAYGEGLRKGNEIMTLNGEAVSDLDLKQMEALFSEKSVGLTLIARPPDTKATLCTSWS
Test: holdup assay
Design: key: below the threshold = too weak to quantify, mostly under pKd 3.1 to 4
Conditions: plain residues with an end cap or a label only (N-terminal biotin on a linker: ado-ado)

Q: For B1, which pKd is on record?
A: 4.13

Target: Inadl_2, Q8NI35
Test: holdup assay
Design: key: below the threshold = too weak to quantify, mostly under pKd 3.1 to 4
Conditions: plain residues with an end cap or a label only (N-terminal biotin on a linker: ado-ado)

Sequence of Inadl_2, Q8NI35 (Q8NI35 238-335): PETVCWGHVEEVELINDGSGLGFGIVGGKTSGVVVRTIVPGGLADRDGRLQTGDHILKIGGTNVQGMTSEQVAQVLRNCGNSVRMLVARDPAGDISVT

Q: Which pKd does the source give for B1 here?
A: below the threshold

Target: T3, HTRA4, P83105
T3 sequence (P83105 378-476, limits assumed, looked up): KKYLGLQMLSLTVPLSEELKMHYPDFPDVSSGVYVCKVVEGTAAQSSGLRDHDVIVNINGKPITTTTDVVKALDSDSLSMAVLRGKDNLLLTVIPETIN
Test: holdup assay
Design: key: below the threshold = too weak to quantify, mostly under pKd 3.1 to 4
Conditions: plain residues with an end cap or a label only (N-terminal biotin on a linker: ado-ado)

Q: With B1 as the binder, how does the pKd read?
A: below the threshold

Target: MAGI2_2, Q86UL8
Test: holdup assay
Design: key: below the threshold = too weak to quantify, mostly under pKd 3.1 to 4
Conditions: plain residues with an end cap or a label only (N-terminal biotin on a linker: ado-ado)

Sequence of MAGI2_2, Q86UL8 (Q86UL8 410-522): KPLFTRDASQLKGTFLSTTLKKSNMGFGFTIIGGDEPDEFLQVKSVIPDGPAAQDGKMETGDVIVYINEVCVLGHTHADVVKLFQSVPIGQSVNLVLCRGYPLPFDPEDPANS

Q: B1 was tested. Which pKd did it give?
A: below the threshold

Target: GOPC, Q9HD26
Test: holdup assay
Design: key: below the threshold = too weak to quantify, mostly under pKd 3.1 to 4
Conditions: plain residues with an end cap or a label only (N-terminal biotin on a linker: ado-ado)

Q: B1 was tested. Which pKd did it give?
A: below the threshold

Target: NOS1, P29475
Test: holdup assay
Design: key: below the threshold = too weak to quantify, mostly under pKd 3.1 to 4
Conditions: plain residues with an end cap or a label only (N-terminal biotin on a linker: ado-ado)

Sequence of NOS1, P29475 (P29475 9-101): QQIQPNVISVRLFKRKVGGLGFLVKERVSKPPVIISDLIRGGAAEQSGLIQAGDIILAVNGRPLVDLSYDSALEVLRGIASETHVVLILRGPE

Q: Which pKd does the source give for B1 here?
A: below the threshold

Target: T4, APBA1_2, Q02410
T4 sequence (Q02410 742-832, limits assumed, looked up): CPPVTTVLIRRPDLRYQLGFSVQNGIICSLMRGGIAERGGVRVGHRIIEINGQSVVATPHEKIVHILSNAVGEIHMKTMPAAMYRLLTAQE
Test: holdup assay
Design: key: below the threshold = too weak to quantify, mostly under pKd 3.1 to 4
Conditions: plain residues with an end cap or a label only (N-terminal biotin on a linker: ado-ado)

Q: How did the pKd turn out when B1 was run?
A: below the threshold

Target: NHERF2_2, Q15599
Test: holdup assay
Design: key: below the threshold = too weak to quantify, mostly under pKd 3.1 to 4
Conditions: plain residues with an end cap or a label only (N-terminal biotin on a linker: ado-ado)

Sequence of NHERF2_2, Q15599 (Q15599 142-238): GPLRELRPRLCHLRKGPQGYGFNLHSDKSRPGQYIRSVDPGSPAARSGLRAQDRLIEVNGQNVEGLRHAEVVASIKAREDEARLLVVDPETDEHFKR

Q: With B1 as the binder, how does the pKd read?
A: 4.18

Target: FRMPD2_2, Q68DX3
Test: holdup assay
Design: key: below the threshold = too weak to quantify, mostly under pKd 3.1 to 4
Conditions: plain residues with an end cap or a label only (N-terminal biotin on a linker: ado-ado)

Sequence of FRMPD2_2, Q68DX3 (Q68DX3 944-1038): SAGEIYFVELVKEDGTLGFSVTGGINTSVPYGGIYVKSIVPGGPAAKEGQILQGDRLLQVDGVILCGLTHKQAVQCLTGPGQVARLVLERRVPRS

Q: For B1, which pKd is on record?
A: below the threshold

Target: PDZRN4_1, Q6ZMN7
Test: holdup assay
Design: key: below the threshold = too weak to quantify, mostly under pKd 3.1 to 4
Conditions: plain residues with an end cap or a label only (N-terminal biotin on a linker: ado-ado)

Sequence of PDZRN4_1, Q6ZMN7 (Q6ZMN7 213-318): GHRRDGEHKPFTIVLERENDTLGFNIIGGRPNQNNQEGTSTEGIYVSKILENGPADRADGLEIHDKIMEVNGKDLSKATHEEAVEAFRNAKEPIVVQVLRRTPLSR

Q: How did the pKd turn out when B1 was run?
A: below the threshold

Target: T5, GRIP1_3, Q9Y3R0
T5 sequence (Q9Y3R0 247-346, limits assumed, looked up): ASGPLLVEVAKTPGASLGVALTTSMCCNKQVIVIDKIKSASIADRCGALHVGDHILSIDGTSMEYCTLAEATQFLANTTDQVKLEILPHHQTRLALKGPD
Test: holdup assay
Design: key: below the threshold = too weak to quantify, mostly under pKd 3.1 to 4
Conditions: plain residues with an end cap or a label only (N-terminal biotin on a linker: ado-ado)

Q: Which pKd does the source give for B1 here?
A: below the threshold

Target: PARD3_3, Q8TEW0
Test: holdup assay
Design: key: below the threshold = too weak to quantify, mostly under pKd 3.1 to 4
Conditions: plain residues with an end cap or a label only (N-terminal biotin on a linker: ado-ado)

Sequence of PARD3_3, Q8TEW0 (Q8TEW0 582-685): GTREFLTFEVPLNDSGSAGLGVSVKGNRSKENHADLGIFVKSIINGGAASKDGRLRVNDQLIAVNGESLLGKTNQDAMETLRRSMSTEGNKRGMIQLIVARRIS

Q: Which pKd does the source give for B1 here?
A: below the threshold

Target: DLG5_1, Q8TDM6
Test: holdup assay
Design: key: below the threshold = too weak to quantify, mostly under pKd 3.1 to 4
Conditions: plain residues with an end cap or a label only (N-terminal biotin on a linker: ado-ado)

Sequence of DLG5_1, Q8TDM6 (Q8TDM6 617-713): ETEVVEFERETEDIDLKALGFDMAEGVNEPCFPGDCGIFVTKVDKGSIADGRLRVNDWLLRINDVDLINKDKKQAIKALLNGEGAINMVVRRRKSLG

Q: For B1, which pKd is on record?
A: below the threshold

Target: ARHGEF12, Q9NZN5-2
Test: holdup assay
Design: key: below the threshold = too weak to quantify, mostly under pKd 3.1 to 4
Conditions: plain residues with an end cap or a label only (N-terminal biotin on a linker: ado-ado)

Sequence of ARHGEF12, Q9NZN5-2 (Q9NZN5 other isoform, or with tags, fused parts or gaps): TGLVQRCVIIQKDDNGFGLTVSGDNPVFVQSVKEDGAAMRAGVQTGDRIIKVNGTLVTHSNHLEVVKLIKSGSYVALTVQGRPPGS

Q: With B1 as the binder, how does the pKd read?
A: below the threshold

Target: GRIP2_3, Q9C0E4
Test: holdup assay
Design: key: below the threshold = too weak to quantify, mostly under pKd 3.1 to 4
Conditions: plain residues with an end cap or a label only (N-terminal biotin on a linker: ado-ado)

Sequence of GRIP2_3, Q9C0E4 (Q9C0E4 238-339): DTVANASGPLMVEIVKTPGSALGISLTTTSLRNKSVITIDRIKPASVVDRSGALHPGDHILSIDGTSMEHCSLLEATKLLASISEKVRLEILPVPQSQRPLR

Q: With B1 as the binder, how does the pKd read?
A: below the threshold

Target: T6, APBA1_1, Q02410
T6 sequence (Q02410 651-752, limits assumed, looked up): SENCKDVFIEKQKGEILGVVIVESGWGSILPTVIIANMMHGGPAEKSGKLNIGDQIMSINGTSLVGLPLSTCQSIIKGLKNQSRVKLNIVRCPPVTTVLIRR
Test: holdup assay
Design: key: below the threshold = too weak to quantify, mostly under pKd 3.1 to 4
Conditions: plain residues with an end cap or a label only (N-terminal biotin on a linker: ado-ado)

Q: With B1 as the binder, how does the pKd read?
A: below the threshold

Target: DLG2_2, Q15700
Test: holdup assay
Design: key: below the threshold = too weak to quantify, mostly under pKd 3.1 to 4
Conditions: plain residues with an end cap or a label only (N-terminal biotin on a linker: ado-ado)

Sequence of DLG2_2, Q15700 (Q15700 189-283): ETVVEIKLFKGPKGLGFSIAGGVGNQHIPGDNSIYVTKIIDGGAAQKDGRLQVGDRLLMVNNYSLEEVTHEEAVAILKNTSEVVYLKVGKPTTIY

Q: B1 was tested. Which pKd did it give?
A: below the threshold

Target: Inadl_8, Q8NI35
Test: holdup assay
Design: key: below the threshold = too weak to quantify, mostly under pKd 3.1 to 4
Conditions: plain residues with an end cap or a label only (N-terminal biotin on a linker: ado-ado)

Sequence of Inadl_8, Q8NI35 (Q8NI35 1425-1530): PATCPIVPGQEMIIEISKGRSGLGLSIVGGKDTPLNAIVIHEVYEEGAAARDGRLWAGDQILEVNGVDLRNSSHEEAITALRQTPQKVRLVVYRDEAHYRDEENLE

Q: How did the pKd turn out when B1 was run?
A: below the threshold

Target: T7, PCLO, Q9Y6V0
T7 sequence (Q9Y6V0 4491-4600, limits assumed, looked up): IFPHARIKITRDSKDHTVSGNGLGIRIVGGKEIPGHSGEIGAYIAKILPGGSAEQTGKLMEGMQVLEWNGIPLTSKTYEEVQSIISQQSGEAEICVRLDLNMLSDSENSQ
Test: holdup assay
Design: key: below the threshold = too weak to quantify, mostly under pKd 3.1 to 4
Conditions: plain residues with an end cap or a label only (N-terminal biotin on a linker: ado-ado)

Q: How did the pKd turn out when B1 was run?
A: below the threshold

Target: T8, LIN7A, O14910
T8 sequence (O14910 103-200, limits assumed, looked up): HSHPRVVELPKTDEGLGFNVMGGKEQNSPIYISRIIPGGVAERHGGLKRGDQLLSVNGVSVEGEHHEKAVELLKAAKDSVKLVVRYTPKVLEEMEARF
Test: holdup assay
Design: key: below the threshold = too weak to quantify, mostly under pKd 3.1 to 4
Conditions: plain residues with an end cap or a label only (N-terminal biotin on a linker: ado-ado)

Q: How did the pKd turn out when B1 was run?
A: below the threshold

Target: T9, LRRC7, Q96NW7
T9 sequence (Q96NW7 1440-1537, limits assumed, looked up): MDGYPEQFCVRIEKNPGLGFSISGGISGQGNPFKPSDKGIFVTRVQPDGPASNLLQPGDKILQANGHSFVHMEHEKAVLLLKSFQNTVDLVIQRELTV
Test: holdup assay
Design: key: below the threshold = too weak to quantify, mostly under pKd 3.1 to 4
Conditions: plain residues with an end cap or a label only (N-terminal biotin on a linker: ado-ado)

Q: Which pKd does the source give for B1 here?
A: below the threshold

Target: T10, GRIP1_2, Q9Y3R0
T10 sequence (Q9Y3R0 145-248, limits assumed, looked up): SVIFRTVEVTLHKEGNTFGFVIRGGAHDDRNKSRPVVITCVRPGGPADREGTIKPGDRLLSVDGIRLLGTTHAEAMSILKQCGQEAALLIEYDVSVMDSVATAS
Test: holdup assay
Design: key: below the threshold = too weak to quantify, mostly under pKd 3.1 to 4
Conditions: plain residues with an end cap or a label only (N-terminal biotin on a linker: ado-ado)

Q: With B1 as the binder, how does the pKd read?
A: below the threshold

Target: T11, PARD3B_1, Q8TEW8
T11 sequence (Q8TEW8 196-299, limits assumed, looked up): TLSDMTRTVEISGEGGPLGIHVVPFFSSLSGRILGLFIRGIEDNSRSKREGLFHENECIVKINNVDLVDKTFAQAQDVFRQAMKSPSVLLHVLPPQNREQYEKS
Test: holdup assay
Design: key: below the threshold = too weak to quantify, mostly under pKd 3.1 to 4
Conditions: plain residues with an end cap or a label only (N-terminal biotin on a linker: ado-ado)

Q: B1 was tested. Which pKd did it give?
A: 3.91

Target: Inadl_9, Q8NI35
Test: holdup assay
Design: key: below the threshold = too weak to quantify, mostly under pKd 3.1 to 4
Conditions: plain residues with an end cap or a label only (N-terminal biotin on a linker: ado-ado)

Sequence of Inadl_9, Q8NI35 (Q8NI35 1530-1615): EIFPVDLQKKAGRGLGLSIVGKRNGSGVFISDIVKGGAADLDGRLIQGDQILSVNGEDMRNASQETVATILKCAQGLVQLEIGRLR

Q: With B1 as the binder, how does the pKd read?
A: below the threshold

Target: PICK1, Q9NRD5
Test: holdup assay
Design: key: below the threshold = too weak to quantify, mostly under pKd 3.1 to 4
Conditions: plain residues with an end cap or a label only (N-terminal biotin on a linker: ado-ado)

Sequence of PICK1, Q9NRD5 (Q9NRD5 17-115): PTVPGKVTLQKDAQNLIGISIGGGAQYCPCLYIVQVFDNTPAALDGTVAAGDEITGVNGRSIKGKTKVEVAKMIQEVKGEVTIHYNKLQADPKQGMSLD

Q: How did the pKd turn out when B1 was run?
A: 3.91
